Results reported in publication PMC8161381.

Tests used:
[1] = biological target: T1, human cathepsin H (human)
T1 sequence (P09668 116-335, looked up): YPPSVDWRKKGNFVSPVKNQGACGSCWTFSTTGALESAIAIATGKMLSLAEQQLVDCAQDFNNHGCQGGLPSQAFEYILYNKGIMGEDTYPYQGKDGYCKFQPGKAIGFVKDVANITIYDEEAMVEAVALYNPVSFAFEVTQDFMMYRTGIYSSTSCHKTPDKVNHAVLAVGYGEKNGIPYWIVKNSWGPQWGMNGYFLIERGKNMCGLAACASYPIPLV

[2] = biological target: human cathepsin C (human)
[3] = biological target: T2, human cathepsin K (human) (UniProt P43235)
T2 sequence: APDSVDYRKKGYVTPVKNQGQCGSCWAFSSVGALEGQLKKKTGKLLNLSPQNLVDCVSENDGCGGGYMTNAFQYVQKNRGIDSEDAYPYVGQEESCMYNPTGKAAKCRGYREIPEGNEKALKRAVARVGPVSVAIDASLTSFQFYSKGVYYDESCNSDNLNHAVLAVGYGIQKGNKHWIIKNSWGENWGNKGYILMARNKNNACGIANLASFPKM

[4] = biological target: Ixodes ricinus cathepsin L3 (Ixodes ricinus)
[5] = biological target: Ixodes ricinus cathepsin L1 (Ixodes ricinus)
[6] = biological target: Ixodes ricinus cathepsin B, native in gut tissue extract (Ixodes ricinus (endogenous in gut tissue))
[7] = biological target: human cathepsin L (human)
[8] = biological target: Ixodes ricinus cathepsin C, native in gut tissue extract (Ixodes ricinus (endogenous in gut tissue))
[9] = biological target: human cathepsin B (human)
[10] = biological target: human cathepsin S (human) (UniProt P25774)
[11] = biological target: cathepsin L-like activity of I. ricinus gut tissue extract (Ixodes ricinus (endogenous in gut tissue))
[12] = biological target: cathepsins L and B activity of I. ricinus gut tissue extract (Ixodes ricinus (endogenous in gut tissue))

Sequence of human cathepsin L (human) (P07711 18-333): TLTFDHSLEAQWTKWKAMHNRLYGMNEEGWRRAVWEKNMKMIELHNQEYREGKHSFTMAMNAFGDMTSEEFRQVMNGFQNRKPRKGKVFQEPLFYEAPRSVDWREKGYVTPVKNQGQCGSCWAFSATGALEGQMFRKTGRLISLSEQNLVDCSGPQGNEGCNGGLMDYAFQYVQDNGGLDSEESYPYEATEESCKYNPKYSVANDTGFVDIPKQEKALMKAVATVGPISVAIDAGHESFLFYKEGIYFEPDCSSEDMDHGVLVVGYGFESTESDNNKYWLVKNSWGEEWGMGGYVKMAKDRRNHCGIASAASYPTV
Sequence of human cathepsin S (human) (P25774 115-331): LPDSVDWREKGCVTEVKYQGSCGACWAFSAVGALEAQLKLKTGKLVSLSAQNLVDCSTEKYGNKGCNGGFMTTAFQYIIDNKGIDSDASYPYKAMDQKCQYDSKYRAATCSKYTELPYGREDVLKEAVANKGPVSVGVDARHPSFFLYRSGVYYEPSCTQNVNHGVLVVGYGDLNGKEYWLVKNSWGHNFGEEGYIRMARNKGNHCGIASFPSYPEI
Sequence of human cathepsin C (human) (P53634 25-463): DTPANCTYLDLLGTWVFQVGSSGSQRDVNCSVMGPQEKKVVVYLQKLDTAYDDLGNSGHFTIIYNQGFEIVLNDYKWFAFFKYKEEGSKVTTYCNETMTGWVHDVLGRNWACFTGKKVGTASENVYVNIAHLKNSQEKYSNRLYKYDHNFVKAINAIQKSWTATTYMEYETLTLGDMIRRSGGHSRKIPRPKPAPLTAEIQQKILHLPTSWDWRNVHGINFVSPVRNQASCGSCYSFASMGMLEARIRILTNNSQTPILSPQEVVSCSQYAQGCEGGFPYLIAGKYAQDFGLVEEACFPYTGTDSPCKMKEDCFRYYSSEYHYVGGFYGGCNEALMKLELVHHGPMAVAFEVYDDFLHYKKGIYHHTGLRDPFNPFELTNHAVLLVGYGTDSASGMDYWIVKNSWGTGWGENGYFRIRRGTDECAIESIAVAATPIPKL

B1: mialostatin (natural protein)
chain: GSASRSKRALVGGWKTQDPTNPKFENLAHYAVSTQVEGREYYDTVLELLEVQTQIVAGVNYKLKFTTTQSTCKIETGVEYSKELCQPKTNKVEAVCTSIIYTVPWQNIKRVLSYHCDAPNDV
[1]
  IC50 of inhibition of protease activity (kinetic assay, 20 nM cathepsin H, Z-Leu-Arg-AMC, pH 6.8, 37 °C): 24 nM
[2]
  IC50 of inhibition of protease activity (kinetic assay, 0.5 nM cathepsin C, Gly-Arg-AMC, pH 5.5, 37 °C): 2.1 nM
[3]
  IC50 of inhibition of protease activity (kinetic assay, 5 nM cathepsin K, Z-Leu-Arg-AMC, pH 5.5, 37 °C): 9.7 nM
[4]
  IC50 of inhibition of protease activity (kinetic assay, 20 pM IrCL3, Z-Phe-Arg-AMC, pH 4.5, 37 °C): 0.39 nM
[5]
  IC50 of inhibition of protease activity (kinetic assay, 0.1 nM IrCL1, Z-Phe-Arg-AMC, pH 4.5, 37 °C): 71 pM
[6]
  IC50 of inhibition of cathepsin B activity in gut tissue extract (kinetic assay, Z-Arg-Arg-AMC, pH 6.5, with Z-Phe-Phe-DMK, 37 °C): 12.1 nM
[7]
  IC50 of inhibition of protease activity (kinetic assay, 33 pM cathepsin L, Z-Leu-Arg-AMC, pH 5.5, 37 °C): 0.38 nM
[8]
  IC50 of inhibition of cathepsin C activity in gut tissue extract (kinetic assay, Gly-Arg-AMC, pH 5.5, with E-64, 37 °C): 91.7 nM
[9]
  IC50 of inhibition of protease activity (kinetic assay, 35 pM cathepsin B, Z-Leu-Arg-AMC, pH 5.5, 37 °C): 9 nM
[10]
  IC50 of inhibition of protease activity (kinetic assay, 350 pM cathepsin S, Z-Val-Val-Arg-AMC, pH 5.5, 37 °C): 2.2 nM
[11]
  IC50 of inhibition of cathepsin L activity in gut tissue extract (kinetic assay, Z-Phe-Arg-AMC, pH 4.5, with CA-074, 37 °C): 0.18 nM
[12]
  IC50 of inhibition of cathepsins L and B activity in gut tissue extract (kinetic assay, Z-Phe-Arg-AMC, pH 5.0, 37 °C): 3.1 nM
